Source: publication PMC11853100, “Structural analysis of extracellular ATP-independent chaperones of streptococcal species and protein substrate interactions” (mSphere, 2025)

B1: Streptococcus pneumoniae pneumolysin, recombinant (natural protein)
chain: ANKAVNDFILAMNYDKKKLLTHQGESIENRFIKEGNQLPDEFVVIERKKRSLSTNTSDISVTATNDSRLYPGALLVVDETLLENNPTLLAVDRAPMTYSIDLPGLASSDSFLQVEDPSNSSVRGAVNDLLAKWHQDYGQVNNVPARMQYEKITAHSMEQLKVKFGSDFEKTGNSLDIDFNSVHSGEKQIQIVNFKQIYYTVSVDAVKNPGDVFQDTVTVEDLKQRGISAERPLVYISSVAYGRQVYLKLETTSKSDEVEAAFEALIKGVKVAPQTEWKQILDNTEVKAVILGGDPSSGARVVTGKVDMVEDLIQEGSRFTADHPGLPISYTTSFLRDNVVATFQNSTDYVETKVTAYRNGDLLLDHSGAYVAQYYITWDELSYDHQGKEVLTPKAWDRNGQDLTAHFTTSIPLKGNVRNLSVKIRECTGLAWEWWRTVYEKTDLPLVRKRTISIWGTTLYPQVEDKVEND
notes: pneumolysin of S. pneumoniae strain R6, residues 2-471 of WP_001284359.1; pQE30 vector; In the folding assays it was denatured in 8 M urea and then diluted; also called Ply; Ply toxin
B2: Streptococcus pneumoniae PrsA (enzyme)
chain: GADLISMKGDVITEHQFYEQVKNNPSAQQVLLNMTIQKVFEKQYGSELDDKEVDDTIAEEKKQYGENYQRVLSQAGMTLETRKAQIRTSKLVELAVKKVAEAELTDEAYKKAFDEYTPDVTAQIIRLNNEDKAKEVLEKAKAEGADFAQLAKDNSTDEKTKENGGEITFDSASTEVPEQVKKAAFALDVDGVSDVITATGTQAYSSQYYIVKLTKKTEKSSNIDDYKEKLKTVILTQKQNDSTFVQSIIGKELQAANIKVKDQAFQNIFTQYIGGGDSSSSSSTSNE
notes: also called SpnPrsA; hexa-his-tagged SpnPrsA; not shown: His6, N-terminal, kept
B3: Streptococcus mutans PrsA (enzyme)
chain: ACSKTNQNSKIATMKGDTITVADFYNEVKNSTASKQAVLSLLVSKVFEKQYGDKVSDKEVTKAYNEAAKYYGDSFSSALASRGYTKEDYKKQIRSEKLIEYAVKEEAKKEITDASYKSAYKDYKPEVTAQVIQLDSEDKAKSVLEEAKADGADFAKIAKDNTKGDKTEYSFDSGSTNLPSQVLSAALNLDKDGVSDVIKASDSTTYKPVYYIVKITKKTDKNADWKAYKKRLKEIIVSQKLNDSNFRNAVIGKAFKKANVKIKDKAFSEILSQY
notes: also called SmuPrsA

Columns and labels:
[1] = biological target: T1, Streptococcus pneumoniae SlrA (Streptococcus pneumoniae strain R6, UniProt Q8DQG5 19-267); experiment: MST; chaperone labelled with red NHS dye kept at 20 nM, unlabelled protein in serial dilution; pH 6.5, 0.05% Tween 20, 25 C; 1:1 model in PALMIST, 95% CI; settings: both partners purified
T1 construct: also called SpnSlrA; hexa-his-tagged SpnSlrA; source: E. coli BL21 (DE3), expressed and purified similarly to Ply (Ni-NTA, dialysis); not shown: His6, N-terminal, kept

[2] = biological target: T1, Streptococcus pneumoniae SlrA; experiment: ITC; chaperone in the syringe, Ply in the sample cell; 20 mM MES, 100 mM NaCl, 1 mM beta-mercaptoethanol, 10% glycerol, pH 6.5, 25 C; independent binding model; settings: both partners purified
[3] = biological target: the molecule itself; experiment: crystal structure; X-ray structures of SpnPrsA (2.55 A) and SmuPrsA (3.15 A); dimers in the crystal
[4] = biological target: T2, bovine serum albumin (bovine, UniProt P02769 25-607); experiment: MST; chaperone labelled with red NHS dye kept at 20 nM, unlabelled protein in serial dilution; pH 6.5, 0.05% Tween 20, 25 C; 1:1 model in PALMIST, 95% CI; settings: both partners purified
T2 construct: also called BSA

[5] = biological target: B1; experiment: as above; settings: both partners purified
[6] = biological target: B1; experiment: ITC; chaperone in the syringe, Ply in the sample cell; 20 mM MES, 100 mM NaCl, 1 mM beta-mercaptoethanol, 10% glycerol, pH 6.5, 25 C; independent binding model; settings: both partners purified

T2 sequence (P02769 25-607): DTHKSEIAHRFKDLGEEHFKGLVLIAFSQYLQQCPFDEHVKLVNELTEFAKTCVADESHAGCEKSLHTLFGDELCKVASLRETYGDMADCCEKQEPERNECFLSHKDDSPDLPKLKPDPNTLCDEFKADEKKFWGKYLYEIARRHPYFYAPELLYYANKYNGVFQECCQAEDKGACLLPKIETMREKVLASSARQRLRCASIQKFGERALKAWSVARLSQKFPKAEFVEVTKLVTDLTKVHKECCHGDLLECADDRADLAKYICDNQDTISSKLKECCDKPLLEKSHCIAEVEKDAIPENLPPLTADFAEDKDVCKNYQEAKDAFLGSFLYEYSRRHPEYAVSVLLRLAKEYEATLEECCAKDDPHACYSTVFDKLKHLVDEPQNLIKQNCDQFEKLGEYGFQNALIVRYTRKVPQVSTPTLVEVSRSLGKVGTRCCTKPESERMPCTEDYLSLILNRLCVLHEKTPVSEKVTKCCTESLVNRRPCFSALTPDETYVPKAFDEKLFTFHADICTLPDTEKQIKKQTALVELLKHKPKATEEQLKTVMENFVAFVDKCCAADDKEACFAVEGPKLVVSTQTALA

| Binder | Kd [1] [nM] | Ka [2] [M⁻¹] | Kd [2] [nM] | binding result [3] | Kd [4] [nM] | Kd [5] [nM] | Ka [6] [M⁻¹] | Kd [6] [nM] | dH [6] [kcal/mol] | stoichiometry N [6] |
| --- | --- | --- | --- | --- | --- | --- | --- | --- | --- | --- |
| B1 | 60 | 1.23e+07 | 81.2 ± 18 | – | – | – | – | – | – | – |
| B2 | – | – | – | binds | 62000 ± 58000 | 70 | 8.38e+06 | 119 ± 25.9 | -100 ± 3.74 | 1.85 |
| B3 | – | – | – | binds | – | – | – | – | – | – |
